In patent publication US6072035:

Biological target: human IgE; monoclonal antibody SE44 (human) (UniProt P01854)
Assay: BIAcore, antibody captured by anti-human IgG, IgE SE44 as analyte

Binder | Ka [M⁻¹] | koff [s⁻¹] | kon [M⁻¹ s⁻¹]
reshaped human C21 antibody C21-H1/L3 (antibody, V domains shown) VH: QVQLVQSGAEVKKPGASVKVSCKASGYTFSMYWLEWVKQRPGHGLEWVGEISPGTFTTNYNEKFKAKATFTADTSTNTAYMELSSLTSEDTAVYYCARFSHFSG VL: EIVLTQSPGTLSLSPGERATLSCRASQSIGTNIHWYQQKPGQAPRLLIKYASESISGIPSRFSGSGSGTDFTLTISRLEPEDFAMYYCQQSDSWPTTFGQGTKVEIK | 4.7e+09 | 6.2e-05 | 290000
reshaped human C21 antibody C21-H1/L2 (antibody, V domains shown) VH: QVQLVQSGAEVKKPGASVKVSCKASGYTFSMYWLEWVKQRPGHGLEWVGEISPGTFTTNYNEKFKAKATFTADTSTNTAYMELSSLTSEDTAVYYCARFSHFSG VL: DILLTQSPGTLSLSPGERATLSCRASQSIGTNIHWYQQKPGQAPRLLIKYASESISGIPDRFSGSGSGTDFTLTISRLEPEDFAMYYCQQSDSWPTTFGQGTKVEIK | 4.9e+09 | 5.7e-05 | 280000
reshaped human C21 antibody C21-H3/L1 (antibody, V domains shown) VH: QVQLVQSGAEVKKPGASVKVSCKASGYTFSMYWLEWVRQAPGHGLEWVGEISPGTFTTNYNEKFKARATFTADTSTNTAYMELSSLRSEDTAVYYCARFSHFSG VL: DILLTQSPGTLSLSPGERATLSCRASQSIGTNIHWYQQKPGQAPRLLIKYASESISGIPSRFSGSGSGTDFTLTISRLEPEDFAMYY | 1.32e+10 | 1.9e-05 | 250000
reshaped human C21 antibody C21-Hay3/L2 (antibody, V domains shown) VH: QVQLVQSGAEVKKPGASVKVSCKASGYTFSMYWLEWVRQAPGQRLEWMGEISPGTFTTNYNEKFKARATFTADTSASTAYMELSSLRSEDTAVYYCARFSHFSGSNYDYFDYWGQGTLVTVSS VL: DILLTQSPGTLSLSPGERATLSCRASQSIGTNIHWYQQKPGQAPRLLIKYASESISGIPDRFSGSGSGTDFTLTISRLEPEDFAMYYCQQSDSWPTTFGQGTKVEIK | 8.1e+09 | 3.1e-05 | 250000
reshaped human C21 antibody C21-H3/L3 (antibody, V domains shown) VH: QVQLVQSGAEVKKPGASVKVSCKASGYTFSMYWLEWVRQAPGHGLEWVGEISPGTFTTNYNEKFKARATFTADTSTNTAYMELSSLRSEDTAVYYCARFSHFSG VL: EIVLTQSPGTLSLSPGERATLSCRASQSIGTNIHWYQQKPGQAPRLLIKYASESISGIPSRFSGSGSGTDFTLTISRLEPEDFAMYYCQQSDSWPTTFGQGTKVEIK | 7.4e+09 | 3.5e-05 | 260000
reshaped human C21 antibody C21-Hay3/L3 (antibody, V domains shown) VH: QVQLVQSGAEVKKPGASVKVSCKASGYTFSMYWLEWVRQAPGQRLEWMGEISPGTFTTNYNEKFKARATFTADTSASTAYMELSSLRSEDTAVYYCARFSHFSGSNYDYFDYWGQGTLVTVSS VL: EIVLTQSPGTLSLSPGERATLSCRASQSIGTNIHWYQQKPGQAPRLLIKYASESISGIPSRFSGSGSGTDFTLTISRLEPEDFAMYYCQQSDSWPTTFGQGTKVEIK | 1.6e+09 | 0.000159 | 260000

Continued, values first:

Ka [M⁻¹] | koff [s⁻¹] | kon [M⁻¹ s⁻¹] | Binder
8.7e+09 | 3e-05 | 260000 | reshaped human C21 antibody C21-H1/L1 (antibody, V domains shown) VH: QVQLVQSGAEVKKPGASVKVSCKASGYTFSMYWLEWVKQRPGHGLEWVGEISPGTFTTNYNEKFKAKATFTADTSTNTAYMELSSLTSEDTAVYYCARFSHFSG VL: DILLTQSPGTLSLSPGERATLSCRASQSIGTNIHWYQQKPGQAPRLLIKYASESISGIPSRFSGSGSGTDFTLTISRLEPEDFAMYY
5.7e+09 | 4.4e-05 | 250000 | reshaped human C21 antibody C21-H3/L2 (antibody, V domains shown) VH: QVQLVQSGAEVKKPGASVKVSCKASGYTFSMYWLEWVRQAPGHGLEWVGEISPGTFTTNYNEKFKARATFTADTSTNTAYMELSSLRSEDTAVYYCARFSHFSG VL: DILLTQSPGTLSLSPGERATLSCRASQSIGTNIHWYQQKPGQAPRLLIKYASESISGIPDRFSGSGSGTDFTLTISRLEPEDFAMYYCQQSDSWPTTFGQGTKVEIK
6.1e+09 | 4.1e-05 | 250000 | reshaped human C21 antibody C21-Hay3/L1 (antibody, V domains shown) VH: QVQLVQSGAEVKKPGASVKVSCKASGYTFSMYWLEWVRQAPGQRLEWMGEISPGTFTTNYNEKFKARATFTADTSASTAYMELSSLRSEDTAVYYCARFSHFSGSNYDYFDYWGQGTLVTVSS VL: DILLTQSPGTLSLSPGERATLSCRASQSIGTNIHWYQQKPGQAPRLLIKYASESISGIPSRFSGSGSGTDFTLTISRLEPEDFAMYY

Biological target: human IgE; monoclonal antibody SE44 (human) (UniProt P01854)
Assay: BIAcore, antibody captured by anti-mouse IgG1, IgE SE44 as analyte

Ka [M⁻¹] | koff [s⁻¹] | kon [M⁻¹ s⁻¹] | Binder
9.2e+09 | 2.6e-05 | 240000 | murine monoclonal antibody TES-C21 (antibody, V domains shown) VH: QVQLQQSGAELMKPGASVKISCKTTGYTFSMYWLEWVKQRPGHGLEWVGEISPGTFTTNYNEKFKAKATFTADTSSNTAYLQLSGLTSEDSAVYFCARFSHFSGSNYDYFDYWGQGTSLTVSS VL: DILLTQSPAILSVSPGERVSFSCRASQSIGTNIHWYQQRTDGSPRLLIKYASESISGIPSRFSGSGSGTEFTLNINSVESEDIADYYCQQSDSWPTTFGGGTKLEIK
